# Target: the molecule itself
# Experiment: non-reducing SDS-PAGE with immunoblot; total cell lysates (1% IGEPAL, 150 mM NaCl, 50 mM Tris-HCl pH 7.9, no reducing agent) in sample buffer without β-ME; cells treated with H2O2 (50-200 uM), T-hydro (1-3 uM), diamide (0.1-1 mM), 10% FBS or expressing H-ras V12
protein,measurement,value
"Flag-tagged PHD3 (natural protein, human, UniProt Q9H6Z9 1-239, looked up, PHD3, human; Flag-tagged lentiviral vector from William Kaelin; also called Flag-PHD3; source: U2OS stably expressing (lentiviral vector), in lysate) MPLGHIMRLDLEKIALEYIVPCLHEVGFCYLDNFLGEVVGDCVLERVKQLHCTGALRDGQLAGPRAGVSKRHLRGDQITWIGGNEEGCEAISFLLSLIDRLVLYCGSRLGKYYVKERSKAMVACYPGNGTGYVRHVDNPNGDGRCITCIYYLNKNWDAKLHGGILRIFPEGKSFIADVEPIFDRLLFFWSDRRNPHEVQPSYATRYAMTVWYFDAEERAEAKKKFRNLTRKTESALTED",stoichiometry N,2
"PHD3, endogenous (natural protein, human (endogenous in U2OS), UniProt Q9H6Z9 1-239, looked up, PHD3, endogenous in U2OS cells; source: endogenous, U2OS lysate) MPLGHIMRLDLEKIALEYIVPCLHEVGFCYLDNFLGEVVGDCVLERVKQLHCTGALRDGQLAGPRAGVSKRHLRGDQITWIGGNEEGCEAISFLLSLIDRLVLYCGSRLGKYYVKERSKAMVACYPGNGTGYVRHVDNPNGDGRCITCIYYLNKNWDAKLHGGILRIFPEGKSFIADVEPIFDRLLFFWSDRRNPHEVQPSYATRYAMTVWYFDAEERAEAKKKFRNLTRKTESALTED",stoichiometry N,2

# Source: article PMC4703963, “Oxidative Dimerization of PHD2 is Responsible for its Inactivation and Contributes to Metabolic Reprogramming via HIF-1α Activation” (Scientific Reports, 2016)
